Test results from PMC7202955 (Current biology : CB, 2020).

Biological target: the molecule itself
Experiment: cross-linking

B1: β3 TMD-tail (construct of the cross-linking experiment, Figure S5) (domain or fragment, UniProt P05106 711-788, looked up)
chain: PECPKGPDILVVLLSVMGAILLIGLAALLIWKLLITIHDRKEFAKFEEERARAKWDTANNPLYKEATSTFTNITYRGT
  stoichiometry N: 2
